Experimental data from the supplement of paper PMC10598134.
± gives the standard deviation.

Test: collision cross section of unmodified peptide (TIMS, N2, iRT-aligned); higher = larger / more extended gas-phase ion
Method: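 Unmodified synthetic counterpart peptides (ProteomeTools / JPT), analysed by nanoLC-TIMS-QTOF (dda-PASEF). 1/K0 was aligned run-wise to spiked iRT peptides and converted to CCS in N2 (Mason-Schamp). Values are the mean of 1-3 technical replicates for the most abundant feature at each charge state. The same unmodified peptide is repeated across rows and is averaged.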

| Substance | collision cross section (charge state: 2) [Å²] | collision cross section (charge state: 3) [Å²] |
| --- | --- | --- |
| GERGVPGER | 324.16 ± 0.79 | 410.66 ± 1.3 |
| GETASKLQSEISR | 404.79 ± 2.8 | 463.95 ± 4.6 |
| GEVGAGAGPGAQAGPSAKR | 436.7 ± 2.1 | 469.26 ± 5.9 |
| GEVQVSDKER | 363.87 ± 0.37 | 439.27 ± 4.5 |
| GEYFGEK | 311.09 ± 0.97 |  |
| GFALVGVGSEASSKK | 433.33 ± 1.5 | 506.74 ± 2.3 |
| GFCFITYTDEEPVKK | 461.17 ± 2.5 | 509.46 ± 2.1 |
| GFGRGGAESHTFK | 384.5 ± 0.2 | 473.03 ± 1.3 |
| GFLQPPPLRQPR | 397.31 ± 0.59 | 451.27 ± 5.3 |
| GFPGAPGLPGLK | 357.61 ± 0.4 |  |
| GFPGAPGLPGLKGHR |  | 475.59 ± 1.2 |
| GFPGIQGRK | 338.49 ± 1.5 | 406.74 ± 2 |
| GGFQNRGGGSGGGGNYR | 412.29 | 474.43 ± 1.4 |
| GGGDRGGFGPGK | 338.46 ± 2.1 | 414.71 ± 5.6 |
| GGGFGAHGRGR | 350.63 ± 2.6 | 420.87 ± 5.1 |
| GGGGGGGGGAPRGR | 341.22 ± 1.4 | 426.09 ± 5.4 |
| GGGGGRGGLHDFR | 368.29 ± 0.36 | 457.27 ± 2.8 |
| GGGYGGDRGGYGGDR | 380.24 | 463.21 ± 0.23 |
| GGNFGGRGGYGGGGGGSR | 404.35 ± 1.4 | 464.41 ± 2.6 |
| GGPGAPGAPGPK | 323.76 ± 0.58 |  |
| GGPGAPGAPGPKGESGDYK | 431.57 ± 1 | 489.8 ± 6.1 |
| GGPGGELPRGPQAGLGPR | 431.54 | 491.33 ± 3.4 |
| GGPGSTLSFVGKR | 395.98 ± 0.53 | 456.87 ± 1.5 |
| GGQGPPGPQGPIGYPGPR | 419.74 ± 1 | 520.51 ± 0.87 |
| GGRGTPGK | 284.56 ± 17 |  |
| GGSAGGRGFFR | 360.79 ± 0.54 | 432.59 ± 6.7 |

| Substance | collision cross section (charge state: 2) [Å²] | collision cross section (charge state: 3) [Å²] |
| --- | --- | --- |
| GGSGGRGVSVSSAR | 376.75 ± 1.3 | 456.24 ± 1.8 |
| GHPGPPGPPGEQGLPGLAGK | 440.68 ± 1.2 | 497.21 ± 14 |
| GHYTIGK | 315.37 ± 1.9 |  |
| GIGRGTVQALHATGAR | 428.55 | 501.79 ± 0.73 |
| GITGKPGPK | 312.13 ± 0.57 |  |
| GKLGVPGLPGYPGR | 385.87 ± 0.86 | 480.85 ± 1.2 |
| GLATFPSRGAK | 368.08 ± 0.52 | 445.97 ± 5.5 |
| GLPGEKGER | 342.99 ± 1.2 | 394.07 ± 1.2 |
| GLPGEPGPR | 309.4 ± 0.22 |  |
| GLPGEPGPRGLLGPK | 406.63 ± 0.39 | 459.1 ± 1.2 |
| GLPGLAGDHGEFGEK | 432.07 ± 1 | 504.1 ± 0.34 |
| GLPGPPGPQGESR | 356.03 ± 0.79 |  |
| GLQGPPGK | 292.79 ± 0.8 |  |
| GNDISSGTVLSDYVGSGPPK | 464.77 ± 1 |  |
| GNDISSGTVLSDYVGSGPPKK |  | 543.89 ± 0.71 |
| GNPGVGTQGPR | 333.35 ± 8.7 |  |
| GPKGQQGEPGPK | 356.26 ± 0.79 | 451.77 ± 0.63 |
| GPPGAKGNK | 312.31 ± 1.7 |  |
| GPPGPAGPSGESR | 343.88 ± 1 |  |
| GPPGPPGK | 285.24 ± 0.86 |  |
| GPPGPPGR | 295.47 ± 0.78 |  |
| GPPGPPGRPGNSGIR |  | 436.52 ± 1.7 |
| GPPPSYGGSSR | 337.81 ± 0.59 |  |
| GPPRGGPGGELPR | 366.24 ± 0.38 | 471.24 ± 3.4 |
| GPQNATDSYVHK | 381.43 ± 1.1 | 445.36 ± 1.8 |
| GQDSTIAASEQQVAAR | 416.79 ± 0.66 | 495.1 ± 0.23 |
